Values quoted from earlier work in patent publication US5679705A, “Triterpene derivatives with immunosuppressant activity” (Merck & Co., Inc., priority 1996, dated 1997).

Target: T1, Kv 1.3 channels (CHO cells transfected with Kv 1.3 channels) (Homo sapiens, UniProt P22001)
T1 construct: expressed in transfected cells; host or cells: CHO cells
Conditions: stated in the method for the peptide used to establish the efflux window; read-out: IC50 (blocker of Kv 1.3 channels)

T1 sequence (P22001 whole entry): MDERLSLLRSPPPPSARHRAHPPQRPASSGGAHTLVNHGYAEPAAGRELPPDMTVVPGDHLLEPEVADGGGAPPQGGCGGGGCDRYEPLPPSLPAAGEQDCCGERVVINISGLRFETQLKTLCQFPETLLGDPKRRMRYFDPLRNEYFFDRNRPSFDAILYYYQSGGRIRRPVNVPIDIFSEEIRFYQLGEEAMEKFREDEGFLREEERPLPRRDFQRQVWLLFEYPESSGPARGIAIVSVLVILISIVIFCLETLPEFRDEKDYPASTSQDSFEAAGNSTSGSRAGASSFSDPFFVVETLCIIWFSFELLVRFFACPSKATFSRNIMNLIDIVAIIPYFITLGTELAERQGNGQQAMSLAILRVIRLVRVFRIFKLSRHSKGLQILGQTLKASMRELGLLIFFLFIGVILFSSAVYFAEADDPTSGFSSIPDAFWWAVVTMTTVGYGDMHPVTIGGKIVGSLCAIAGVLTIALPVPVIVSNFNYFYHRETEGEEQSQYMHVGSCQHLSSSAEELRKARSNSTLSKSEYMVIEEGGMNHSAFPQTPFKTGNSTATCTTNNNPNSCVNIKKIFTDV

Question: With “margatoxin (TIINVKCTSPKQCLPPCKAQFGQSAGAKCMNGKCKCYPH; UniProt P40755 1-39, looked up)” as the substance, how does the IC50 read?
Answer: 0.1 nM
